Laboratory results from patent US20170066830A1 (MERSANA THERAPEUTICS, published 2017).
Residue numbers refer to the chain shown, from its start. One block for each binder: values may come before it.

Key:
[1] = biological target: T1, full-length human HER2 receptor on cells (human, UniProt P04626 23-1255); experiment: cell-based or functional assay
[2] = biological target: T1, full-length human HER2 receptor on cells; experiment: flow cytometry competition on JIMT-1 cells: unlabeled XMT 1518 titrated against 30 nM Alexa Fluor 647-labeled XMT 1519
[3] = biological target: T1, full-length human HER2 receptor on cells; experiment: cell-based or functional assay; remark: listed apart in the source
[4] = biological target: T1, full-length human HER2 receptor on cells; experiment: flow cytometry on JIMT-1 cells, Alexa Fluor 647 goat anti-human IgG detection
Experimental: The cell surface binding of the HER2 antibodies to JIMT-1 cells were evaluated using a Macsquant flow cytometer (Miltenyi Biotec, Bergisch Gladbach, Germany). JIMT-1 cells, grown overnight to approximately 90% confluent cultures in DMEM media (ATCC, Manassas, Va.) with 10% FBS (Gibco®, Life Technologies, Grand Island, N.Y.), were released from the plate surface by treatment with Accutase cell detachment solution (Innovative Cell Technologies, San Diego, Calif.). The detached cells were washed once with ice cold media containing 6% goat serum and resuspended in the same media. 100,000 cells were aliquoted per well of a V-bottom, 96-well plate and incubated with a range of HER2 antibody concentrations (0.05-100 nM) in 150 μl DMEM with 6% goat serum on ice for 3 hours. […] The cells were washed once with ice cold PBS (Gibco®, Life Technologies, Cat.# 10010049) and suspended in 200 μl of ice cold PBS with 1% paraformaldehyde. The amount of fluorescence bound per cell was determined by running 5000 cells for each treatment on the flow cytometer. The median fluorescence value for each treatment was graphed, and the dissociation constant, Kd, was calculated for each antibody with Graphpad Prism software by non-linear regression using the single site, specific binding model.

[5] = biological target: T1, full-length human HER2 receptor on cells; experiment: flow cytometry competition on JIMT-1 cells: unlabeled XMT 1519 titrated against 30 nM Alexa Fluor 647-labeled XMT 1519
[6] = biological target: recombinant human HER2 extracellular domain (amino acids 23-652, Acro Biosystems Cat.# HE2-H5225) (human, UniProt P04626 23-652); experiment: ELISA, HER2 extracellular domain coated on plate, one site specific binding fit
Experimental: (§1) The affinity of the antibodies for recombinant human and cynomolgus monkey HER2 was determined by an ELISA assay. […] The wells were washed 4 times with TTBS (50 mM Tris-HCl, pH 7.4, 150 mM NaCl, and 0.05% Tween 20). The wells were blocked by incubation with 50 μl of TTBS containing 5% bovine serum albumin for 1 hr. […] Unbound test antibodies were removed with TTBS washes (4×). […] Unbound secondary antibody was removed by 4 TTBS washes. The HRP substrate, TMB Bethyl Laboratories#E102) was added to each well and incubated until a yellow color was visible. The reaction was stopped by the addition of 50 μl of 0.2 N sulfuric acid. […] Kd was determined by non-linear regression using the one site, specific binding model.

[7] = biological target: T2, recombinant cynomolgus monkey HER2 extracellular domain (amino acids 1-652, Sino Biological Cat.# 90295-CO8H) (cynomolgus monkey, UniProt A0A2K5WUT7 1-622); experiment: as above
T2 construct: range 1-652; Bought protein; the stated range 1-652 includes the signal peptide of the construct
Experimental: as §1

AKT phosphorylation in MCF7 cells after 4 h antibody [1]: 103 % of untreated cells
IC50 (read off the curve) [2]: ~3 nM
B1: XMT 1518 antibody (antibody, human IgG1, kappa, V domains shown)
VH: QVQLVESGGGVVQPGRSLRLSCAASGFTFSSYGMHWVRQAPGKGLEWVAGIWWDGSNEKYADSVKGRFTISRDNSKNTLYLQMNSLRAEDTAVYYCAKEAPYYAKDYMDVWGKGTTVTVSS
VL: EIVLTQSPGTLSLSPGERATLSCRASQSVSSDYLAWYQQKPGQAPRLLIYGASRRATGIPDRFSGSGSGTDFTLTISRLEPEDFAVYYCQQYVSYWTFGGGTKVEIKR

AKT phosphorylation in BT474 cells after 4 h antibody (western) [3]: 21 % of untreated cells
HER3 phosphorylation (Tyr 1289) in BT474 cells after 4 h antibody (western) [3]: 71 % of untreated cells
EC50 (read off the curve) [4]: ~1 nM
IC50 (read off the curve) [5]: ~5 nM
B2: XMT 1519 antibody (antibody, human IgG1, kappa, V domains shown)
VH: EVQLVESGGGLVQPGGSLRLSCAASGFTFSSYSMNWVRQAPGKGLEWVSYISSSSSTIYYADSVKGRFTISRDNAKNSLYLQMNSLRAEDTAVYYCARGGHGYFDLWGRGTLVTVSS
VL: not shown

Kd [6]: 0.05 nM
Kd [7]: 0.05 nM
B3: Example 16H, XMT 1519-(EG2-MI-(10 kDa PHF-BA-(AF-HPA-Ala))) (antibody, human IgG1, kappa, V domains shown)
VH: B2 VH
VL: not shown
modifications: polymer-drug scaffolds on cysteine thiols possible; positions not given; EG2-MI-(10 kDa PHF-BA-(AF-HPA-Ala)) polymer-drug scaffolds joined to cysteine thiols of the partially reduced antibody; positions not given; DAR about 11.8:1 to about 17.5:1

AKT phosphorylation in BT474 cells after 4 h antibody (western) [3]: 30 % of untreated cells
HER3 phosphorylation (Tyr 1289) in BT474 cells after 4 h antibody (western) [3]: 76 % of untreated cells
EC50 (read off the curve) [4]: ~1 nM
B4: XMT 1520 antibody (antibody, human IgG1, kappa, V domains shown)
VH: B2 VH with S31G, Y32R, S54D, S56R
VL: not shown
